These results are taken from patent US20250082681A1 (NANJING LEGEND BIOTECH, published 2025).

Assay [1] addresses T1, recombinant human CLL1 extracellular domain, His-tagged (CLL1-His protein) (human, UniProt Q5QGZ9 65-265).
T1 construct: ECD made by transient expression in HEK293 (293-F) cells and purified by IMAC; also called recombinant human CLL1 protein; ECD of CLL1; not shown: His tag (protein called CLL1-His, purified by IMAC)
T1 sequence: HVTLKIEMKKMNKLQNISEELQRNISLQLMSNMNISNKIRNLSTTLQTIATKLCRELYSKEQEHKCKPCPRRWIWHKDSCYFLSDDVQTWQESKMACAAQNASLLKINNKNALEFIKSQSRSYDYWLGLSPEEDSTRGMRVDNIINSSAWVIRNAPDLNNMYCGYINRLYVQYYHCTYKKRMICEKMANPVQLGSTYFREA
Description: SPR (BIACORE T200), IgG1 on recombinant human CLL1; column KD, unit inferred. The method, then:
(§1) The unique clones were grown in 2YT medium and induced by IPTG for IgG1 expression in the supernatant. The supernatants of unique binders were analyzed for their ability to bind to a CLL1-expressing HEK293/huCLL1 cell line and cancer cell line AMLL193 using a FACS assay. Affinities of selected binders in supernatants to recombinant human and cynomolgus monkey CLL1 proteins were determined by surface plasmon resonance (SPR) on a BIACORE® T200 instrument. The dissociation phase was used to calculate the kd values for each IgG1.
For orientation: Surface plasmon resonance follows binding to a sensor surface in real time, without labels.

For assay [2], the target named is T1, recombinant human CLL1 extracellular …. Description: SPR (BIACORE T200), supernatants on recombinant human CLL1. The method, then: as §1

Broadly, the Kd is the free concentration of one partner at which half of the binding sites on the other are occupied at equilibrium, for simple one-to-one binding.

B1: AS138658 (antibody, V domains shown)
VH: QVQLVQSGGSLRLSCAASGFTFSSYDMSWVRQAPGKGLEWVSTINSGGETTYYRDSVKGRFTISRDNAKNTLYLQLNSLKTEDTAMYYCAKGGGWEYYGMDYWGKGTLVTISS
VL: SYELTQPSAVSVSLGQTARITCQGGNLGSSYAYWYQQKPGQAPVLVIYADDSRPSGIPERFSGSSSGGTATLTISGAQAEDEADYYCQSYDSSSYDIVFGGGTHLTVL
notes: Called 'IgG1', from a camel phage library, expressed in IPTG-induced supernatant with a C-terminal His-tag; also called anti-CLL1 IgG1
For B1, the Kd in assay [1] turned out to be 21 nM.

B2: AS141286 (antibody, V domains shown)
VH: QVQLVQSGGGLVQPGGSLRLSCAASRFPDGSYYMSWVRQGPGKGLEWVSSIYTGGDSTYYADSVKGRFTISKDNAKNALYLQMNSLKPEDTAVYYCAADPGGRYGPHEYNYWGQGTQVTVSS
VL: SSELTQPSAVSVSLGETARITCQGGNIGSNYANWYQQKPGQAPVLVIYGDDSRPSGIPERFSGSSSGGTATLTISGAQAEDEADYYCQSADSSGYNAVFGGGTHLTVL
notes: as for B1
For B2, the Kd in assay [1] is 1.2 nM.

B3: AS141330 (antibody, V domains shown)
VH: QVKLEQPGGSLRLSCAASGFTFSDYDMTWVRQAPGKGLEWISTITGGGESTYYRDSVKGRATISRDNAKNTLYLQLNSLKTEDTAMYYCARGGGWEYYGMNYWGKGTLVTISS
VL: SSELTQPSAVSVSLGETARITCQGGKVGSNYASWYQQKPGQAPVLVIYGDDSRPSGIPERFSGSSSGGTATLTISGAQAEDEADYYCQSYDSSGYNAVFGGGTHLTVL
notes: as for B1
With B3, the binding result in assay [2] is “binds”.

B4: AS141567 (antibody, V domains shown)
VH: QVQLVQSGGGLVQPGGSLRLSCAASGFTFSSYAMSWVRQAPGKGLEWVSAINSGDSSTYYVDSVKGRFTISRDNAKNTLYLQLNSLKTEDTAMYYCAKDRIPGPYSDGGGFLGIVFGYWGQGTQVTISS
VL: SSELTQPSAVSVSLGQTARITCQGGNFGKYYAHWYQQKPGQAPVLVIYEDSERPSGIPERFSGSSSGDTATLTISGAQAEDEGDYYCHSAESSAAVFGGGTHLTVL
notes: as for B1
Turning to B4, the Kd in assay [1] is 2.3 nM.

B5: AS141553 (antibody, V domains shown)
VH: QVQLVESGGGLVQPGGSLRLSCAASGFTFSSVDMTWVRQAPGKGLEWVSTINTGSGSTYYADSVKGRFTISRDNAKNTLYLQMNSLKTEDTAVYYCATDLAGGGAWFTAPFHYWGQGTQVTISS
VL: SYELTQPSAVSVSLGETARITCQGGNVGYYYASWYQQKPGQAPVLVIYEDSERPSGIPERFSGSSSGGTATLTISGAQAEDEADYYCQSADSSGYNAAVFGGGTHLTVL
notes: as for B1
Turning to B5, the Kd in assay [1] came to 3.5 nM.

B6: AS141701 (antibody, V domains shown)
VH: QVQLVQSGGGLVQPGGSLRLSCAASGFTFSVYAMSWVRQAPGKGLEWVSAIKAANSDGDNTYYVDSVKGRFTISRDNAKNTLYLQLNSLKTEDTAIYYCAKAMYECSSGSWCPLGDALDAWGQGTLVTVSS
VL: SSELTQPSAVSVSLGETARITCQGGNVRSSYVSWYQQKPGQAPVLVIYEDSERPSGIPERFSGSSSGGTATLTISGAQAEDEADYYCQSGDNSAYSAAVFGGGTHLTVL
notes: as for B1
As for B6, the Kd in assay [1] stood at 2.8 nM.

B7: AS141297 (antibody, V domains shown)
VH: QVQLVQSGGGLVQPGGSLRLSCAASGFTFSSYGMIWVRQAPGKGLEWVSAANSGGGTTYYADSVKGRFTISRDNAKNTLYLQLNSLKTEDTAMYYCVKDLYIDGGTWSGLGLYLEVWGQGTLVTVSS
VL: SYELTQPSAVSVSLGETARITCQGGDFGTYYASWYQQKPGQAPVLVIYEDSERPSGIPERFSGSSSGGTATLTISGAQAEDEADYYCQSADSSVNVVFGGGTHLTVL
notes: as for B1
For the molecule B7, in assay [1], the Kd turned out to be 0.54 nM.

B8: AS141522 (antibody, V domains shown)
VH: QVQLVQSGGGLVQPGGSLRLSCAASGFTFGDYIMIWVRQAPGKGLEWVSAINSGGDSTYYADSVKGRFTISRDNAKNTLYLQLNSLKTQDTAIYYCAKDREAYYGSFYGGSGFDYWGQGTQVTISS
VL: SSELTQPSAVSVSLGETARITCQGGNVGSSYASWYQQKPGQAPVLVIYEDSERPSGIPERFSGSSSGGTATLTISRAQAEDEADYYCQSADRSGYNAVFGGGTHLTVL
notes: as for B1
Take B8: in assay [1], the equilibrium dissociation constant (Kd) came to 0.37 nM.

B9: AS141641 (antibody, V domains shown)
VH: AVQLVESGGGLVQPGGSLRLSCAASGFTFSGYPMSWVRQAPGKALEWVSTINNGGGSTYYADSVKGRFTISRDNAKNTLYLQLNSLKTEDTAMYYCAKRHIPSSYCSDGYCYAAGEDYGMDYWGKGTLVTISS
VL: SSELTQPSAVSVSLGETARITCQGGNVGSSYASWYQQKPGQAPVLVIYEDSERPSGIPERFSGSSSGGTATLTISGAQAEDEADYYCQSADSSGYNAVFGGGTHLTVL
notes: as for B1
Regarding B9, the Kd in assay [1] turned out to be 0.28 nM.

B10: AS138943 (antibody, V domains shown)
VH: AVQLVESGGGLVQPGGSLRLSCTASGFNFGLYAMSWVRQAPGKGLEWVSGINGGGGLTYYPDSMKGRFTISRDVAKNTLYLELNSLKIEDTAMYYCAKDPDMWTAFPNALDAWGQGTLVTVSS
VL: SYELTQPSAVSVSLGETARITCQGGNIGINYANWYQQKPGQAPVLVIYGDDRRPSGIPERFSGSISGGTATLTISGAQAEDEADYYCQSADSSPYVVFGGGTHLTVL
notes: as for B1
Turning to B10, the Kd in assay [1] is 39 nM.

B11: AS138628 (antibody, V domains shown)
VH: QVQLVQSGGGLVQPGGSLRLSCASSGFTFSSYTMSWVRQAPGKGLEWVSGFNSYGSTYYADSVKGRFTISRDNAKNTLYLQLNSLKTEDTAMYYCARGLVDFDYWGQGTQVTVSS
VL: QSVLTQPSSVSGTPGQTVTISCTGTSNDVGGYNYVSWYQQLPGTAPKLLIYQVNKRASGIPDRFSGSKSGNTASMTISGLQSADEADYYCASYRSTGNAVFGGGTHLTVL
notes: as for B1
Regarding B11, the Kd in assay [1] came to 43 nM.

B12: AS138993 (antibody, V domains shown)
VH: QVQLQESGGDLVQPGGSLRLSCAASGFTFSSYDMTWVRQAPGKGLEWVSTINSGGGVTYYTDSVKGRFTISRDNAKNTLYLQMNSLKPEDTAMYYCAADLSWYHALDAWGQGTLVTVSS
VL: SSELTQPAAVSVSLGETARITCQGGNFGSYYASWYQQKPGQAPVLVIHANDNRPSGIPERFSGSSSGGTVTLTISGAQAEDEADYYCQSYDSSANAVVFGGGTHLTVL
notes: as for B1
As for B12, the Kd in assay [1] amounted to 13 nM.

B13: AS141819 (antibody, V domains shown)
VH: EVQLVQSGGGLVQPGGSLRLSCATSGFTFSNNWMHWVRQAPGKGLEWVSSINTGDGSTSSADSVKGRFTISRDNTKNILYLQMNSLKSEDTALYYCAKELDYELGKGPHEYNYWGQGTQVTVSS
VL: SYELTQPSAVSVSLGETARITCQGGNIGSNYANWYQQKPDQAPVLVIYGDDSRPSGIPERFSGSSSGGTATLTISGAQAEDETDYYCQSADSSGYKAVFGGGTHLTVL
notes: as for B1
With B13, the Kd in assay [1] was found to be 11 nM.
